Source: patent US8871909B2, “Antibodies inhibiting c-Met dimerization and uses thereof” (Pierre Fabre Medicament, priority 2007, dated 2014)
Blank lines part the entries; values can stand above or below the molecule they belong to.

Experiments:
c-Met = biological target: T1, c-Met (Homo sapiens, UniProt P08581); test: Phospho c-Met ELISA assay on A549 cells; type: cell-based; conditions: purified Mabs; for IC50, c-Met phosphorylation: 0.0015 to 30 μg/ml (0.01-200 nM); for agonist effect on c-Met phosphorylation, added alone / antagonist effect on c-Met phosphorylation in presence of HGF: A549, 30 μg/ml (200 nM), Example 18
T1 construct: endogenous in cells; host or cells: A549
T1 sequence (P08581 25-1390): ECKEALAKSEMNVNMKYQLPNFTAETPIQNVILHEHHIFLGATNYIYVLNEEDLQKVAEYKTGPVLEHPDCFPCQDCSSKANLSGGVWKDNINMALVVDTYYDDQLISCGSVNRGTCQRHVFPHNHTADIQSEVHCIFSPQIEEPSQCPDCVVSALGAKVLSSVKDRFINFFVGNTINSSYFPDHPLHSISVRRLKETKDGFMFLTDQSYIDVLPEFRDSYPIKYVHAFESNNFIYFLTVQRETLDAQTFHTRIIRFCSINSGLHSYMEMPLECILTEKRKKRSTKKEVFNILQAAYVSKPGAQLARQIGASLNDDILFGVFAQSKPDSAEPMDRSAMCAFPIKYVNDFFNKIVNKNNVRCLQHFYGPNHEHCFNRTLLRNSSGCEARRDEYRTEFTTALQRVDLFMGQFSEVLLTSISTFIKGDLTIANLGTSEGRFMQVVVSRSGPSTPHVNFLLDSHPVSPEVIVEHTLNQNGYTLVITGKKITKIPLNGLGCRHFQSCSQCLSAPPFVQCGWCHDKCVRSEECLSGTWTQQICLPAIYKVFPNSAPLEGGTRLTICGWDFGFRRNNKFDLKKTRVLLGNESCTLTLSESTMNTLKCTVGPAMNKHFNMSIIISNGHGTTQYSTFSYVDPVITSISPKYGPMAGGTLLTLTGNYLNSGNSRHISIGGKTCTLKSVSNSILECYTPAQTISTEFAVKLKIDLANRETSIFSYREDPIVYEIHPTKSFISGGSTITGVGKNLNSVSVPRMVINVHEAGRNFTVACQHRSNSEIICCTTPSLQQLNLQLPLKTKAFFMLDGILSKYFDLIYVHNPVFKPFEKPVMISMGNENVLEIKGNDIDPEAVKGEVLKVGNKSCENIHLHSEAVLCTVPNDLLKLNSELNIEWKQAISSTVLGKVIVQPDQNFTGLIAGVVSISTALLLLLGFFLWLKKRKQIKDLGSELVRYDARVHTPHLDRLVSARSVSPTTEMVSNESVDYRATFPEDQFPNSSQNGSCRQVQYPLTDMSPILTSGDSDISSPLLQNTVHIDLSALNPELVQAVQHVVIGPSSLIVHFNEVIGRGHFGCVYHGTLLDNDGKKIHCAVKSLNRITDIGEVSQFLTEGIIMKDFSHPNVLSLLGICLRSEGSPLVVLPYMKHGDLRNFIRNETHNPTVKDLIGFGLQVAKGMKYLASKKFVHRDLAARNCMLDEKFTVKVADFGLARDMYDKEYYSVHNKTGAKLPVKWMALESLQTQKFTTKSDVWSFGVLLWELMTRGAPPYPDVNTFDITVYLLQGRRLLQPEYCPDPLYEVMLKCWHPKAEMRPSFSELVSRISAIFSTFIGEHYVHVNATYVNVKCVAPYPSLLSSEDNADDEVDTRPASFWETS
Procedure: To determine the activity of anti-c-Met antibodies on c-Met phosphorylation a phospho c-Met ELISA assay was set-up. Briefly 500 000 A549 cells were seeded in each well of 6-well plates in F12K medium+10% FCS. 16 hours before HGF addition (100 ng/ml), cells were starved and each antibody to be tested was added at a final concentration of 30 μg/ml 15 minutes before ligand stimulation. 15 minutes after HGF addition, cold lysis buffer was added, cells were scraped and cell lysates collected and centrifuged at 13 000 rpm for 10 min at 4° C. Supernatants were quantified with a BCA kit (Pierce) and stored at −20° C. For ELISA assay, a goat anti-c-Met antibody (R&D ref. AF276) was used as a capture antibody (coating overnight at 4° C.) and after a saturation step (1 h at RT) with a TBS-BSA 5% buffer, […] of protein from the different cell lysates was added to each well of the 96-well plate. After a 90 minute-incubation time at RT, plates were washed four times and an anti-phospho-c-Met antibody (Rabbit anti-pY1230-1234-1235 c-Met) was added. After an additional 1 hour incubation time and 4 washes an anti-rabbit-HRP (Biosource) was added for 1 hour at RT and then Luminol substrate was added before evaluation the luminescence with a Mithras device. […] As described in the various examples presented in this patent, this weak basal effect has no consequences on the activity of antibodies in other in vitro and in vivo tests.
In example 3, the effect of anti-c-Met Mabs on phosphorylation was assessed with dosed supernatants from each hybridoma to be evaluated. The test has been performed again with purified 11E1 and 224G11 Mabs that have been evaluated either at a final concentration of 30 μg/ml (200 nM) or at a dose range from 0.0015 to 30 μg/ml (0.01-200 nM) in order to determine the IC50 of each antibody. The protocol used is the same as the one described in example 3.

NCI-H441 = test: Established xenograft NCI-H441 tumor model, 224G11 alone or with Navelbine (Example 15); type: in vivo, Swiss nude mice; conditions: 224G11 2 mg loading then 1 mg twice a week i.p.; Navelbine 8 mg/kg i.p. days 5, 12, 19
Procedure: Briefly, NCI-H441 cells from ATCC were routinely cultured in RPMI 1640 medium, 10% FCS and 1% L-Glutamine. Cells were split two days before engraftment so that they were in exponential phase of growth. Ten million NCI-H441 cells were engrafted in PBS to 7 weeks old Swiss nude mice. […] Mice were treated i.p. with a loading dose of 2 mg of 224G11/mouse and then twice a week, for 43 days, with 1 mg of antibody/mouse. The 9G4 MAb was used as an isotype control.
Navelbine® was given by i.p. injections at a dose of 8 mg/kg on days 5, 12, 19 post-cell injection. For combined therapy with both 224G11 and Navelbine®, the two compounds were administered separately. In this experience the 2 compounds were used at their optimal dosage. Tumor volume was measured twice a week and calculated by the formula: p/6×length×width×height.

[1] = biological target: T2, recombinant c-Met-Extra-Cellular Domain (ECD) fused to an human IgG Fc domain (Homo sapiens, UniProt P08581); test: Determination of affinity constants (KD) by Biacore analysis; type: binding; conditions: text summary of table 4; read-out: affinity for recombinant c-Met-Fc fusion protein
T2 construct: recombinant c-Met-Extra-Cellular Domain (ECD) fused to an human IgG Fc domain (R&D Systems) as antigen; purchased R&D Systems
T2 sequence (P08581 25-932 limits assumed): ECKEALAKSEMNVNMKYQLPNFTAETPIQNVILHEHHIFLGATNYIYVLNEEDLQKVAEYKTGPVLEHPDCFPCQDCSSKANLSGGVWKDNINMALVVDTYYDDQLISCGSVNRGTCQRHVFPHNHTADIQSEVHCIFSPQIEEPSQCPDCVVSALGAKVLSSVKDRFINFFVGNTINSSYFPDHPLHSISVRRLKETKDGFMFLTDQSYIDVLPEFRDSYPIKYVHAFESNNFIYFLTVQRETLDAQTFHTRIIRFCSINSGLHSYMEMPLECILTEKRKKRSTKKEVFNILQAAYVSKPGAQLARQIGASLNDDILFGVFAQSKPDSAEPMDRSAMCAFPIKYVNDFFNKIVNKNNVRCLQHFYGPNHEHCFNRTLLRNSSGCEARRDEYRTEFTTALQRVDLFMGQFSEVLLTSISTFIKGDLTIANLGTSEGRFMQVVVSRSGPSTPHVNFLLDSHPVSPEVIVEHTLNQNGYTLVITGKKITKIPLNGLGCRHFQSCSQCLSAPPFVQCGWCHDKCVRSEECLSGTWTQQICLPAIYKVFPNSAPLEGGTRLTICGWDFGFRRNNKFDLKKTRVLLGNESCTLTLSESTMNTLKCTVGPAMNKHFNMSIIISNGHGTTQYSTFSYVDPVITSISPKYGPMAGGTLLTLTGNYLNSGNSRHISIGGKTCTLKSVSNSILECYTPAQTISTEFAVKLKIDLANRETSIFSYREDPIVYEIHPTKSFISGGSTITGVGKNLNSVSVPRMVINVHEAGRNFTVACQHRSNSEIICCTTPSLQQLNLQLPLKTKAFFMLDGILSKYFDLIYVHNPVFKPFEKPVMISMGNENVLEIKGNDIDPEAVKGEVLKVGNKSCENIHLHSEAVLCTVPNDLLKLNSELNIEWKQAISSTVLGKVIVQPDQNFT
Source text: The binding affinity of purified 11E1 and 224G11 antibodies was investigated by BIAcore X using recombinant c-Met-Extra-Cellular Domain (ECD) fused to an human IgG Fc domain (R&D Systems) as antigen (MW=129 kDa). As both c-Met-Fc fusion proteins and antibodies are bivalent compounds, Fab fragments of mAbs 11E1 and 224G11 (MW=50 kDa) were generated by papain cleavage, purified and used in this assay to avoid interference with avidity parameter. For the assay, an anti-Tag histidine capture antibody was coated on CM5 sensorchips. The running buffer was HBS-EP, the flow rate was 30 μl/min and the test was performed at 25° C. Soluble c-Met (ECD_M1)2-Fc-(HHHHHH)2 antigen was captured on the sensorchip (around 270 RU), and the antibodies to be tested were used in solution as analytes. The sensorship was regenerated using Glycine, HCl pH 1.5 buffer on both flowcells for half a minute.

HGF-cMet = biological target: T3, HGF-cMet (Homo sapiens, UniProt P08581); test: HGF-cMet competition assay (ELISA); type: binding; conditions: purified murine antibodies
T3 construct: recombinant c-Met-Extra-Cellular Domain (ECD) fused to an human IgG Fc domain
T3 sequence (P08581 25-932 limits assumed): as above
Source text: FIG. 54: HGF-cMet competition assay. In this ELISA-based assay, recombinant Fc-cMET residual binding to plastic coated HGF in the presence of purified murine monoclonal antibodies 11E1, 224G11 and 227H1 was detected with […] and measured at 450 nm;
FIG. 58: HGF-cMet competition assay of 227H1 murine and recombinant antibodies. In this ELISA-based assay, recombinant Fc-cMet residual binding to plastic coated HGF in the presence of the different forms of the 227H1 antibody was detected with a biotinylated unrelated anti-cMet antibody. Purified murine 227H1 monoclonal antibody, chimeric and HZ4VH-derived humanized 227H1-derived recombinant antibodies were tested and compared for their abilities to compete with HGF-cMet binding when measured at 450 nm;
Humanization of the anti-cMet antibodies were performed independently for each chain and sequentially, regarding to the analysed amino acids in each variable domain. The humanization process was evaluated in a first attempt in an ELISA-based binding assay to recombinant Fc-cMet; binding activities the humanized antibodies being compared to the recombinant chimeric antibody. In a second attempt, anti-cMet humanized antibodies were evaluated for their abilities to displace the Fc-cMet binding onto plastic-coated recombinant HGF; this competition assay allowing the direct comparison of murine, chimeric and humanized versions of the anti-cMet antibodies.
These two assays were used to characterize the recombinant chimeric and humanized versions of the murine anti-cMet antibodies. To this end, briefly, anti-cMet variable domains, either murine or humanized, were cloned into LONZA's pCONplus expression vectors series and recombinant IgG1/κ-derived antibodies were expressed in CHO cells. […] Both direct binding and HGF-competition assays were assessed to better characterize recombinant chimeric or humanized versions.

- IC50, c-Met phosphorylation (c-Met): nanomolar
- agonist effect on c-Met phosphorylation, added alone (c-Met): no agonist effect
- antagonist effect on c-Met phosphorylation in presence of HGF (c-Met): 75%
- Kd [1]: ~0.04 nM
- maximum of HGF binding displacement (HGF-cMet; at high antibody concentration): 100%
B1: 224G11: murine anti-c-Met monoclonal antibody, IgG1 kappa; heavy chain SEQ ID No. 18, light chain SEQ ID No. 21 (antibody, V domains shown)
VH: EVQLQQSGPELVKPGASVKISCKTSGYIFTAYTMHWVRQSLGESLDWIGGIKPNNGLANYNQKFKGKATLTVDKSSSTAYMDLRSLTSEDSAVYYCARSEITTEFDYWGQGTALTVSS
VL: DIVLTQSPASLAVSLGQRATISCRASESVDSYANSFMHWYQQKPGQPPKLLIYRASNLESGIPARFSGSGSRTDFTLTINPVEADDVATYYCQQSKEDPLTFGSGTKLEMK
modifications: mus musculus
- anti-tumor activity (NCI-H441): as efficient as Navelbine®

- IC50, c-Met phosphorylation (c-Met): nanomolar
- agonist effect on c-Met phosphorylation, added alone (c-Met): no agonist effect
- antagonist effect on c-Met phosphorylation in presence of HGF (c-Met): 87%
- Kd [1]: ~0.04 nM
B2: 11E1: murine anti-c-Met monoclonal antibody, IgG1 kappa; heavy chain SEQ ID No. 62, light chain SEQ ID No. 63 (antibody, V domains shown)
VH: QVQLQQSGAELAKPGASVKMSCKASGYTFTSYWMNWVKQRPGQGLEWIGYINPTTGSTDYNQKLKDKATLTADKSSNTAYMQLSSLTSEDSAVYYCAIGGYGSWFAYWGQGTLVTVSA
VL: QIVLTQSPAIMSASPGEKVTLTCSASSSVSSTYLYWYQQKPGSSPKLWIYTTSILASGVPARFSGSGSGTSYSLTISSMETEDAASYFCHQWSSYPFTFGSGTKLDIK
modifications: mus musculus
- HGF-cMet binding competition activity (HGF-cMet): moderate, not full but reliable competitive activity
